# In paper PMC8927147 (2022):
# Ends that are not written are not given here. * marks the point of attachment. Bz = O=C(c1ccccc1)*
# T1: Taf14_(YEATS) (S. cerevisiae, UniProt P35189 2-137)
# T1 chain: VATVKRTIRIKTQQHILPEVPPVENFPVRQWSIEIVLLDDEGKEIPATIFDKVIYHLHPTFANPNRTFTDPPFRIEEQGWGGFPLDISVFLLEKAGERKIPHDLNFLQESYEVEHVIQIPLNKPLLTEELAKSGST
# T2: Sas5_(YEATS) (S. cerevisiae, UniProt Q99314 2-139)
# T2 chain: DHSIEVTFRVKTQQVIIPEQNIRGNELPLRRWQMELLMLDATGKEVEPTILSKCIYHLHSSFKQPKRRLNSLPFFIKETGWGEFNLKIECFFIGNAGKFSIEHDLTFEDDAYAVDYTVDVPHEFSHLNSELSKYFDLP
# Tests used:
# Test in all cases: ITC
# Hst2 = Hst2 (S. cerevisiae, UniProt P53686 1-357)
# Chain of Hst2 (P53686 whole entry): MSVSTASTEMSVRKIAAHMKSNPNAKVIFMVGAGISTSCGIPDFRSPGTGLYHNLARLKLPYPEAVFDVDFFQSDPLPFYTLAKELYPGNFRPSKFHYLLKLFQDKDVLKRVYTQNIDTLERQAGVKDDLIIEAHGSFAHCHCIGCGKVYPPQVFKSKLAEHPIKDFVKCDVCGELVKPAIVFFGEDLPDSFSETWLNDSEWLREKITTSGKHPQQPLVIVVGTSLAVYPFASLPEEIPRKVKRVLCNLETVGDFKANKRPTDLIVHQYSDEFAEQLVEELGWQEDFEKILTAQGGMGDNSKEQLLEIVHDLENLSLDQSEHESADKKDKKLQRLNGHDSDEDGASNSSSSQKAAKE
# Taf14_(YEATS) = biological target: T1, Taf14_(YEATS)
# Sas5_(YEATS) = biological target: T2, Sas5_(YEATS)
Binder,Kd (Hst2),Kd (Taf14_(YEATS)),Kd (Sas5_(YEATS))
TARKSTGGK(Bz)APRKQLASY [H3K14bz peptide],13.2 µM,385 µM,100 µM
STGGKAPRKQLASKAARY (benzoyl-lysine (Kbz) at K18) [H3K18bz peptide],1.74 µM,85.5 µM,245 µM
APRKQLASK(Bz)AARKSAPSTY [H3K23bz peptide],14.8 µM,467 µM,279 µM
ARTKQTARKSTGGKAPRKQY (benzoyl-lysine (Kbz) at K9) [H3K9bz peptide],,,178 µM
KQLASKAARK(Bz)SAPSTGGVKY [H3K27bz peptide],6.13 µM,136 µM,92.6 µM
